How the values were obtained:
[1] = molecular target: T1, alphaVBeta5 (αVβ5) integrin heterodimer (UniProt P06756 31-992; P18084 24-719); assay: ELISA; printed as ED50 (median effective dose)
T1 construct: Heterodimer used in ELISA; source and construct not described; also called aVB5

[2] = molecular target: T1, alphaVBeta5 (αVβ5) integrin heterodimer; assay: ELISA, average of 5 experiments normalized to VTN-FL
[3] = molecular target: T1, alphaVBeta5 (αVβ5) integrin heterodimer; assay: ELISA

T1 sequence (P06756 31-992, chain 1 of 2): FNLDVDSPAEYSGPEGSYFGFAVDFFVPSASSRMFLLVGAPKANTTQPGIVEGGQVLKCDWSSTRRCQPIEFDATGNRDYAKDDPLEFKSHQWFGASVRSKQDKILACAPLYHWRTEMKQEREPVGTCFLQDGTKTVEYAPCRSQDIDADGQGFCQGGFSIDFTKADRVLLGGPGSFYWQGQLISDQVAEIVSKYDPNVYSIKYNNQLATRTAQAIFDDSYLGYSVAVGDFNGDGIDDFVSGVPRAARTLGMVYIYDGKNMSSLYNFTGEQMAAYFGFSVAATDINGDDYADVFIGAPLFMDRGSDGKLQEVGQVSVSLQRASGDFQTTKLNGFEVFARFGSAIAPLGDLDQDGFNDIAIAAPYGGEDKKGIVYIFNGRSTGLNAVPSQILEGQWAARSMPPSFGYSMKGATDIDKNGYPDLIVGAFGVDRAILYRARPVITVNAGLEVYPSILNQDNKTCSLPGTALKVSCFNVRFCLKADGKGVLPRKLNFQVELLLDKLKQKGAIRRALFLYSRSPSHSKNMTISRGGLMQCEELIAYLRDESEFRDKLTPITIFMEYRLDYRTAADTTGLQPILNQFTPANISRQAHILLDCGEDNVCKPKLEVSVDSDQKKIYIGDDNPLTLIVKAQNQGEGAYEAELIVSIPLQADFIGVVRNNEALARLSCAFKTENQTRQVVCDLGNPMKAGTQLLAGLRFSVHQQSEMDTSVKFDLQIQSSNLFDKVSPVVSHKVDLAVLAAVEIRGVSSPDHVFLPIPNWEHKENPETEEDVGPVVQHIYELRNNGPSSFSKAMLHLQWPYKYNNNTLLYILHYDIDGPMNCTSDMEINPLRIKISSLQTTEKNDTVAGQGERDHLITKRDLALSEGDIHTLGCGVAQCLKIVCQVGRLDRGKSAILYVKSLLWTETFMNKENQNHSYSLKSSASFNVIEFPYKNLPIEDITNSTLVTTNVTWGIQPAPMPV
T1 sequence (P18084 24-719, chain 2 of 2): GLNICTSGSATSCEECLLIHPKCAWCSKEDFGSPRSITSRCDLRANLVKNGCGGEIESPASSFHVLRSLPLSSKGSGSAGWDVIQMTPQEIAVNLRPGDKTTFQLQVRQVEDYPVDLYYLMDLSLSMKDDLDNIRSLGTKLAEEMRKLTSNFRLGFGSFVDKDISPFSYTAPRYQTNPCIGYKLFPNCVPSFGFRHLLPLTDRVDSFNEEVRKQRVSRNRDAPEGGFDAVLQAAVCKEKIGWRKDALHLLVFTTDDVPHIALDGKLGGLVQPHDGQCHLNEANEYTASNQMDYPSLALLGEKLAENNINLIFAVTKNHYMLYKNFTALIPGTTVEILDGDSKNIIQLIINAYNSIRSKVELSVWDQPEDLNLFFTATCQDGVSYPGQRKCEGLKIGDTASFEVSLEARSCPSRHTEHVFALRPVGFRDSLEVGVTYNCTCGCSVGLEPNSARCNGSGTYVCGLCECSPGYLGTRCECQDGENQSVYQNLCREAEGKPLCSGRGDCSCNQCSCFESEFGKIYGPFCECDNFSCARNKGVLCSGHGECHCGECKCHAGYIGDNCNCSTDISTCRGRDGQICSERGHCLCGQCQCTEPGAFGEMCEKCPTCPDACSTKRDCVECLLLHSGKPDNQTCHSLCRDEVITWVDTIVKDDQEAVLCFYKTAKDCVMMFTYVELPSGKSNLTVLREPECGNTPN

Binder | EC50 [1] | fold increase in ED50 [2] | fold increase in binding affinity [3]
VTN62-292 T63G, V67N, F68P (ligand, also called VN-3) VGRGDNPTMPEDEYTVYDDGEEKNNATVHEQVGGPSLTSDLQAQSKGNPEQTPVLKPEEEAPAPEVGASKPEGIDSRPETLHPGRPQPPAEEELCSGKPFDAFTDLKNGSLFAFRGQYCYELDEKAVRPGYPKLIRDVWGIEGPIDAAFTRINCQGKTYLFKGSQYWRFEDGVLDPDYPRNISDGFDGIPDNVDAALALPAHSYSGRERVYFFKGKQYWEYQFQHQPSQEEHHHHHH | 0.523 µg/mL | > 7 fold | 
VTN62-292,D80Y (ligand, also called D80Y mutant) MVTRGDVFTMPEDEYTVYDYGEEKNNATVHEQVGGPSLTSDLQAQSKGNPEQTPVLKPEEEAPAPEVGASKPEGIDSRPETLHPGRPQPPAEEELCSGKPFDAFTDLKNGSLFAFRGQYCYELDEKAVRPGYPKLIRDVWGIEGPIDAAFTRINCQGKTYLFKGSQYWRFEDGVLDPDYPRNISDGFDGIPDNVDAALALPAHSYSGRERVYFFKGKQYWEYQFQHQPSQEEHHHHHH |  |  | ~2 fold

— patent US20240368253A1 (BIO TECHNE, published 2024)
